Results taken from patent publication US20030186877A1 (BRIGHAM AND WOMEN S HOSPITAL, published 2003).
Square brackets hold non-standard residues; d marks the D form. * marks the point of attachment. dBpa = N[C@H](Cc1ccc(C(=O)c2ccccc2)cc1)C(=O)O; Boc = CC(C)(C)OC(=O)*; Aib = CC(C)(N)C(=O)O

B1: Boc-Aib-Ala-Leu-Aib-Ala-Leu-Aib-Ala-Leu-Aib-O-methylester (peptide)
peptide: Boc-[Aib]AL[Aib]AL[Aib]AL[Aib]-OMe
SMILES: COC(=O)C(C)(C)NC(=O)[C@H](CC(C)C)NC(=O)[C@H](C)NC(=O)C(C)(C)NC(=O)[C@H](CC(C)C)NC(=O)[C@H](C)NC(=O)C(C)(C)NC(=O)[C@H](CC(C)C)NC(=O)[C@H](C)NC(=O)C(C)(C)NC(=O)OC(C)(C)C

What follows are binders tested against γ-secretase (assay: cell-based or functional assay).

With Boc-[dV]G[Aib][dV][dV][dBpa][Aib][dThr(OBz)][dV][Aib]-OMe [Boc-D-Val-Gly-Aib-D-Val-D-Val-D-BPA-Aib-D-Thr(OBz)-D-Val-Aib-OMe] the “IC50 in the same cell-based assay using CHO cells stably transfected with human APP (production of total Aβ)” value was 0.1 µM.

In the case of B1, the “IC50 of blocking Aβ production in APP-transfected cells” value is reported as 2 µM.

Molecular target: γ-secretase
Test: cell-based or functional assay
Remark: another data set of the same source

In order of falling “IC50: concentration of compound that reduced production of total Aβ by 50% in a cell-based assay using CHO cells stably transfected with human APP” value:
1. Boc-A[Thr(OBz)][Aib]IV[Aib]-OMe [Boc-Ala-Thr(OBz)-Aib-Ile-Val-Aib-OMe]  25 µM
2. Boc-IA[Thr(OBz)][Aib]IV[Aib]-OMe [Boc-Ile-Ala-Thr(OBz)-Aib-Ile-Val-Aib-OMe]  15 µM
3. Boc-VI[Aib][Thr(OBz)]V[Aib]-OMe [Boc-Val-Ile-Aib-Thr(OBz)-Val-Aib-OMe]  12 µM
4. Boc-[Aib]IA[Thr(OBz)][Aib]IV[Aib]-OMe [Boc-Aib-Ile-Ala-Thr(OBz)-Aib-Ile-Val-Aib-OMe]  10 µM
5. Boc-[Aib]VVI[Aib][Thr(OBz)]V[Aib]-OMe [Boc-Aib-Val-Val-Ile-Aib-Thr(OBz)-Val-Aib-OMe]  6 µM
6. Boc-VVI[Aib][Thr(OBz)]V[Aib]-OMe [Boc-Val-Val-Ile-Aib-Thr(OBz)-Val-Aib-OMe]  6 µM
7. Boc-GV[Aib]IA[Thr(OBz)][Aib]IV[Aib]-OMe [Boc-Gly-Val-Aib-Ile-Ala-Thr(OBz)-Aib-Ile-Val-Aib-OMe]  5 µM
8. Boc-VG[Aib]VVI[Aib][Thr(OBz)]V[Aib]-OMe [Boc-Val-Gly-Aib-Val-Val-Ile-Aib-Thr(OBz)-Val-Aib-OMe]  3 µM
9. Boc-G[Aib]VVI[Aib][Thr(OBz)]V[Aib]-OMe [Boc-Gly-Aib-Val-Val-Ile-Aib-Thr(OBz)-Val-Aib-OMe]  3 µM
10. Boc-V[Aib]IA[Thr(OBz)][Aib]IV[Aib]-OMe [Boc-Val-Aib-Ile-Ala-Thr(OBz)-Aib-Ile-Val-Aib-OMe]  2 µM
